Changes are numbered by the printed parent chain.
T1: EsCas13d, nuclease-dead (Eubacterium siraeum, UniProt B0MS50, R295A;H300A;R849A;H854A)
T1 sequence: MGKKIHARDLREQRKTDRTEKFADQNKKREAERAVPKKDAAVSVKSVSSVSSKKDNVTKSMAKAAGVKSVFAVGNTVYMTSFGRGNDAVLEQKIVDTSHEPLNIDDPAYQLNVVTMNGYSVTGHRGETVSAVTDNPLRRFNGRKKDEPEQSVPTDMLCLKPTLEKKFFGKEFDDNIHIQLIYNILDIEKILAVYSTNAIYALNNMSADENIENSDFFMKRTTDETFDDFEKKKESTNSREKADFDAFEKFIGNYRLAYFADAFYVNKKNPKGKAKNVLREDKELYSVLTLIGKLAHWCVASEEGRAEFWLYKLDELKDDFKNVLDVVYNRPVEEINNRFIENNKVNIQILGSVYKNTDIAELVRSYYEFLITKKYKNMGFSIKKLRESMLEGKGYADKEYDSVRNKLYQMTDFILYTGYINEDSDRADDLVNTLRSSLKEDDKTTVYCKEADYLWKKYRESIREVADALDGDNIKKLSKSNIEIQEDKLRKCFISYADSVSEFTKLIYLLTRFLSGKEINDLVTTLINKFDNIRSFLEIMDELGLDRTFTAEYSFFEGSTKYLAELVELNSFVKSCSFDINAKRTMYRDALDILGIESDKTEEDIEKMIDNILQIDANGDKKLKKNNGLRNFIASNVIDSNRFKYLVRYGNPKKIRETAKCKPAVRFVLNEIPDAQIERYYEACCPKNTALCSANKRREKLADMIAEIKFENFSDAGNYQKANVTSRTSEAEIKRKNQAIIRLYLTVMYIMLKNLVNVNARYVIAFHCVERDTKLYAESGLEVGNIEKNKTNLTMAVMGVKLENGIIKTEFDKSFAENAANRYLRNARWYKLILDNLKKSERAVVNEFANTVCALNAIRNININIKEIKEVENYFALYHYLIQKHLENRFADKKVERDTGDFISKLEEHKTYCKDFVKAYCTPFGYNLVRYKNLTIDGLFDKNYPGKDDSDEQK

B1: target 1 MT 5'PFS GGA 3'PFS CUC (mixed)
RNA 1: CACCCGUGCAAAAAUGCAGGGGUCUAAAACUGAGCGGAUAACCUCUCUAUGG
RNA 2: GGGAAUGGAUCCACAUCUACGAAUUCGGACCAUAGAGAGGUUAUCCGCUCACUCAGAUCGGAAGAGCACACGU
B2: target 1 MT 5'PFS GAC 3'PFS UUG (mixed)
RNA 1: B1 RNA 1
RNA 2: B1 RNA 2 with G28A, A29C, C52U, C54G
B3: target 1 MT 5'PFS GGA 3'PFS UCU (mixed)
RNA 1: B1 RNA 1
RNA 2: B1 RNA 2 with C52U, U53C, C54U
B4: target 1 MT 5'PFS GAC 3'PFS UUC (mixed)
RNA 1: B1 RNA 1
RNA 2: B1 RNA 2 with G28A, A29C, C52U
B5: target 1 MT 5'PFS GAC 3'PFS UUU (mixed)
RNA 1: B1 RNA 1
RNA 2: B1 RNA 2 with G28A, A29C, C52U, C54U
B6: target 1 MT 5'PFS GCU 3'PFS UUC (mixed)
RNA 1: B1 RNA 1
RNA 2: B1 RNA 2 with G28C, A29U, C52U
B7: target 1 insG 3' of 10,insA 3' of 7 (mixed)
RNA 1: B1 RNA 1
RNA 2: GGGAAUGGAUCCACAUCUACGAAUUCGUACCAUAGAGAGGUUGAUCACGCUCACCGAGAUCGGAAGAGCACACGU
B8: target 1 MT 5'PFS CAA 3'PFS UCG (mixed)
RNA 1: B1 RNA 1
RNA 2: B1 RNA 2 with G27C, G28A, C52U, U53C, C54G
B9: target 1 MT 5'PFS GGA 3'PFS UCA (mixed)
RNA 1: B1 RNA 1
RNA 2: B1 RNA 2 with C52U, U53C, C54A
B10: target 1 MT 5'PFS GCU 3'PFS UUA (mixed)
RNA 1: B1 RNA 1
RNA 2: B1 RNA 2 with G28C, A29U, C52U, C54A
B11: target 1 MT 5'PFS GUA 3'PFS GGC (mixed)
RNA 1: B1 RNA 1
RNA 2: B1 RNA 2 with G28U, C52G, U53G
B12: target 1 MT 5'PFS GUA 3'PFS GGA (mixed)
RNA 1: B1 RNA 1
RNA 2: B1 RNA 2 with G28U, C52G, U53G, C54A
B13: target 1 MT 5'PFS AGG 3'PFS UUC (mixed)
RNA 1: B1 RNA 1
RNA 2: B1 RNA 2 with G27A, A29G, C52U
B14: target 1 MT 5'PFS GAC 3'PFS UUA (mixed)
RNA 1: B1 RNA 1
RNA 2: B1 RNA 2 with G28A, A29C, C52U, C54A
B15: target 1 MT 5'PFS GGA 3'PFS UCG (mixed)
RNA 1: B1 RNA 1
RNA 2: B1 RNA 2 with C52U, U53C, C54G
B16: target 1 MT 5'PFS GGA 3'PFS UCC (mixed)
RNA 1: B1 RNA 1
RNA 2: B1 RNA 2 with C52U, U53C
B17: target 1 MT 5'PFS AGG 3'PFS UUG (mixed)
RNA 1: B1 RNA 1
RNA 2: B1 RNA 2 with G27A, A29G, C52U, C54G
B18: target 1 MT 5'PFS GUA 3'PFS GGU (mixed)
RNA 1: B1 RNA 1
RNA 2: B1 RNA 2 with G28U, C52G, U53G, C54U
B19: target 1 MT 5'PFS GCU 3'PFS UUG (mixed)
RNA 1: B1 RNA 1
RNA 2: B1 RNA 2 with G28C, A29U, C52U, C54G

Target: T1, EsCas13d, nuclease-dead
Experiment: crRNA (strand 1, pre-loaded); Mg2+; 40 mM Tris-HCl pH 7.5, 150 mM NaCl, 6 mM MgCl2, 1 mM DTT, 0.1% Tween-20, 0.2 mg/ml BSA; 25 C; 10 min per concentration, then washed
Conditions: tags: His6-TwinStrep-SUMO cleaved; N-terminal SNAP kept (SNAP-Surface 488); label: 3' end held by stalled T7 RNA polymerase

| Binder | Kd |
| --- | --- |
| B1 | 47 ± 17.5 nM |
| B2 | 14.5 ± 4 nM |
| B3 | 13.5 ± 2.5 nM |
| B4 | 14.1 ± 4.25 nM |
| B5 | 11 ± 4.5 nM |
| B6 | 36.5 ± 9 nM |
| B7 | 15.3 ± 0.6 nM |
| B8 | 12.2 ± 3.6 nM |
| B9 | 17.9 ± 5.7 nM |
| B10 | 22 ± 5 nM |
| B11 | 7.25 ± 0.95 nM |
| B12 | 15.8 ± 2.45 nM |
| B13 | 33 ± 11 nM |
| B14 | 13.2 ± 4.3 nM |
| B15 | 10.8 ± 1.2 nM |
| B16 | 23 ± 7 nM |
| B17 | 40.5 ± 9.5 nM |
| B18 | 20.7 ± 2 nM |
| B19 | 61 ± 23.5 nM |

— PMC10786891, “Massively parallel profiling of RNA-targeting CRISPR-Cas13d”
